One data set has as its target T1, UHRF1 delta627-674 (human, UniProt Q96T88 1-793, del627-674).
T1 sequence: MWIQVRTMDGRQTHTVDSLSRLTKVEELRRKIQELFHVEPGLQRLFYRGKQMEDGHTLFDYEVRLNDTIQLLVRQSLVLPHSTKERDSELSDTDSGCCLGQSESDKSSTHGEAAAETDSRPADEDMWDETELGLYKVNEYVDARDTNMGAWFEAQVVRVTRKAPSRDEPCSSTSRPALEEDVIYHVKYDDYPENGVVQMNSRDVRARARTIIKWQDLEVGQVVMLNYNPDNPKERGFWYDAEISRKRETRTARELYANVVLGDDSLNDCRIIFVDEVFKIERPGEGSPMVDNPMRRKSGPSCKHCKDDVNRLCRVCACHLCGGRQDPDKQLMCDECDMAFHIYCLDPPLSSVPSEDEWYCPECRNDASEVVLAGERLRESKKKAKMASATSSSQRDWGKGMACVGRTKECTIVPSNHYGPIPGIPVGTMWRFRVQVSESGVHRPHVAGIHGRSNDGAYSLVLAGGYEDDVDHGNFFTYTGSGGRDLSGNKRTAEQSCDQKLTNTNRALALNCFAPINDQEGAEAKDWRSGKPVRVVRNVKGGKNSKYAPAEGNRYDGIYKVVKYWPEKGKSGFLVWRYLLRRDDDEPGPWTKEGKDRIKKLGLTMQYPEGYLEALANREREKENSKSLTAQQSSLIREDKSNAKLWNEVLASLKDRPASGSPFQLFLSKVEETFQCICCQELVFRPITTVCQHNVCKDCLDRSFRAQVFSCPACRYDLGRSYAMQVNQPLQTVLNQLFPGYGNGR
Nature of the data set: FP; ITC: 10 mM HEPES pH 8.0, 100 mM NaCl, 18 C; EMSA: 20 mM HEPES pH 7.5, 100 mM NaCl, 8% glycerol, 1 mM DTT, on ice; pull-down: 20 mM HEPES-NaOH pH 8.0, 100 mM NaC. (In general: In EMSA bound probe runs differently from free probe, usually more slowly.)

Another data set concerns the target T2, SRA-Spacer-642 (human, UniProt Q96T88 414-642).
T2 sequence: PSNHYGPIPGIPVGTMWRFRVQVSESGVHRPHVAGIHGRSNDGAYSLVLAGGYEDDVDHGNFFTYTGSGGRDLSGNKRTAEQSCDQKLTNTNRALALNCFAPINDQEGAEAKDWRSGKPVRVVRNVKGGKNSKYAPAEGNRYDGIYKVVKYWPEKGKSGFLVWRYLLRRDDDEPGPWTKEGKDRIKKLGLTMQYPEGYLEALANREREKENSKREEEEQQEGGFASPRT
Described as above.

Data set [1] deals with T3, SRA-Spacer (human, UniProt Q96T88 414-674).
T3 sequence: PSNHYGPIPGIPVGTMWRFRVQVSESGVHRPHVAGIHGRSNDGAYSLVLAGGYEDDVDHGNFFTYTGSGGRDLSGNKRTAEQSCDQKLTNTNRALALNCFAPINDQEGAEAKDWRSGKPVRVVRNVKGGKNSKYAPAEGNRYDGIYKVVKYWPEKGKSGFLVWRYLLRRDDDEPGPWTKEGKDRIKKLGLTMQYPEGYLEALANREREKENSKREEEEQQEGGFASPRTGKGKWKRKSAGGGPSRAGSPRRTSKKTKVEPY
Described as above.

In a further data set the target is T4, SRA (human, UniProt Q96T88 414-617).
T4 sequence: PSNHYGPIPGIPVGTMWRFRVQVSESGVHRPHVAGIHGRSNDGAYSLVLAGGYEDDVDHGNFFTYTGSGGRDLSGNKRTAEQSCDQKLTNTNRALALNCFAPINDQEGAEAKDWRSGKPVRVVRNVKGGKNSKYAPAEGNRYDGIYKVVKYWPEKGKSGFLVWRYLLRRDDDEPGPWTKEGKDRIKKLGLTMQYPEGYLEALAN
Kind of data set: FP; 50 mM NaCl; ITC: 10 mM HEPES pH 8.0, 100 mM NaCl, 18 C; EMSA: 20 mM HEPES pH 7.5, 100 mM NaCl, 8% glycerol, 1 mM DTT, on ice; pull-down: 20 mM HEPES-NaOH pH 8.0, 100 mM NaC.

Data set [2] has as its target T3, SRA-Spacer. Described as above.

B1: FAM-12bp-HM-DNA (dsDNA)
DNA 1: CCATGCGCTGAC
DNA 2: GTCAGCGCATGG
modifications: 5-methyl-dC at position 6 of strand 2 (GTCAGXGCATGG)
Turning to B1, the Kd (in general, the constant that tells how readily two partners part at equilibrium) with UHRF1 delta627-674 came to 4940 ± 1090 nM; in the data set with SRA-Spacer-642, 6110 ± 1150 nM; with SRA-Spacer [1] it was 490 ± 80 nM; with SRA it was 150 ± 18 nM; with SRA-Spacer [2], 24 ± 3.7 nM.
